Each block holds one binder with its values, some of them ahead of it.
What was measured:
[1] = target: T1, His-tagged CodA, purified recombinant (E. coli, UniProt P25524 1-427); test: co-IP
T1 sequence (looked up): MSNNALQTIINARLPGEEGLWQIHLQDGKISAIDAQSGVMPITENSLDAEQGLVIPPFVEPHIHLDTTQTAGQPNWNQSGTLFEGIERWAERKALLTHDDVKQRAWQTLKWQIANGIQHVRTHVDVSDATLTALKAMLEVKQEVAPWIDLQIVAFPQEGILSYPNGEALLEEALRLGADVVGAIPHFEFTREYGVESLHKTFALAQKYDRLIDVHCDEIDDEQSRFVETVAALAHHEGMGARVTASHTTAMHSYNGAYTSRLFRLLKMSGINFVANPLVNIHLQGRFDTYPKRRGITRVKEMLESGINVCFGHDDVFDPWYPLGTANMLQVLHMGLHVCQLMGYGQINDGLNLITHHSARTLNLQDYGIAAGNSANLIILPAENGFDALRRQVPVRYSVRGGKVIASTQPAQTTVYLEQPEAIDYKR

[2] = target: the molecule itself; test: non-reducing SDS-PAGE and anti-FLAG western blot of lysates

binding result [1]: binds
B1: His-tagged GAPDH, purified recombinant (enzyme, E. coli, UniProt P0A9B2 1-331, looked up)
chain: MTIKVGINGFGRIGRIVFRAAQKRSDIEIVAINDLLDADYMAYMLKYDSTHGRFDGTVEVKDGHLIVNGKKIRVTAERDPANLKWDEVGVDVVAEATGLFLTDETARKHITAGAKKVVMTGPSKDNTPMFVKGANFDKYAGQDIVSNASCTTNCLAPLAKVINDNFGIIEGLMTTVHATTATQKTVDGPSHKDWRGGRGASQNIIPSSTGAAKAVGKVLPELNGKLTGMAFRVPTPNVSVVDLTVRLEKAATYEQIKAAVKAAAEGEMKGVLGYTEDDVVSTDFNGEVCTSVFDAKAGIALNDNFVKLVSWYDNETGYSNKVLDLIAHISK

B2: FLAG-tagged Hcp (hybrid-cluster protein), overexpressed in WT E. coli (enzyme, UniProt P75825 1-550, looked up)
chain: MFCVQCEQTIRTPAGNGCSYAQGMCGKTAETSDLQDLLIAALQGLSAWAVKAREYGIINHDVDSFAPRAFFSTLTNVNFDSPRIVGYAREAIALREALKAQCLAVDANARVDNPMADLQLVSDDLGELQRQAAEFTPNKDKAAIGENILGLRLLCLYGLKGAAAYMEHAHVLGQYDNDIYAQYHKIMAWLGTWPADMNALLECSMEIGQMNFKVMSILDAGETGKYGHPTPTQVNVKATAGKCILISGHDLKDLYNLLEQTEGTGVNVYTHGEMLPAHGYPELRKFKHLVGNYGSGWQNQQVEFARFPGPIVMTSNCIIDPTVGAYDDRIWTRSIVGWPGVRHLDGDDFSAVITQAQQMAGFPYSEIPHLITVGFGRQTLLGAADTLIDLVSREKLRHIFLLGGCDGARGERHYFTDFATSVPDDCLILTLACGKYRFNKLEFGDIEGLPRLVDAGQCNDAYSAIILAVTLAEKLGCGVNDLPLSLVLSWFEQKAIVILLTLLSLGVKNIVTGPTAPGFLTPDLLAVLNEKFGLRSITTVEEDMKQLLSA
stoichiometry N [2]: 2
